Laboratory results as given in the supplement of paper PMC6755084.

system: F1*sub RNA substrate (template-directed ligation); assay: fraction ligated after 30 min (ligated reads / total reads); higher = more ligase activity; settings: 42 °C
Procedure: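 Chip-synthesised pool of F1* ligase ribozyme variants (all single and double substitutions, single, double and triple deletions in the catalytic core and GAA bulge, plus designed variants) was transcribed with T7 and reacted as a pool with excess substrate F1*sub for 30 min at 42 C in 50 mM EPPS pH 8.5, 25 mM MgCl2. Ligated and unligated bands were separated by PAGE, barcoded by RT and deep sequenced; fraction ligated = ligated reads / total reads per variant, relative activity = FL / FL of wild type (0.826). Sequences are the DNA template of the ribozyme.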

| Sequence | fraction ligated |
| --- | --- |
| GAGACCGCAACTGAAAAGTTGTATCACTTGTCGTAAGACACTTTGGATGGGTTGGTTCTGCACGTAGAAGCAAAAGGC [3d276] | 0.00404 |
| GAGACCGCAACTGAAAAGTTGTTACACTTGTCGTAAGACACTTTGGATGGGTTGGTTCTGCACGTAGAAGCAAAAGGC [3d737] | 0.00325 |
| GAGACCGCAACTGAAAAGTTGTTATACTTGTCGTAAGACACTTTGGATGGGTTGGTTCTGCACGTAGAAGCAAAAGGC [3d948] | 0 |
| GAGACCGCAACTGAAAAGTTGTTATCACTGTCGTAAGACACTTTGGATGGGTTGGTTCTGCACGTAGAAGCAAAAGGC [3d1463] | 0.0111 |
| GAGACCGCAACTGAAAAGTTGTTATCACTTGCGTAAGACACTTTGGATGGGTTGGTTCTGCACGTAGAAGCAAAAGGC [3d1704] | 0.0839 |
| GAGACCGCAACTGAAAAGTTGTTATCACTTGTCGAAGACACTTTGGATGGGTTGGTTCTGCACGTAGAAGCAAAAGGC [3d1980] | 0.102 |
| GAGACCGCAACTGAAAAGTTGTTATCACTTGTCGTAAACACTTTGGATGGGTTGGTTCTGCACGTAGAAGCAAAAGGC [3d2104] | 0.0572 |
| GAGACCGCAACTGAAAAGTTGTTATCACTTGTCGTAAGAACTTTGGATGGGTTGGTTCTGCACGTAGAAGCAAAAGGC [3d2182] | 0.0451 |
| GAGACCGCAACTGAAAAGTTGTTATCACTTGTCGTAAGACACTTGGATGGGTTGGTTCTGCACGTAGAAGCAAAAGGC [3d2254] | 0.00633 |
| GAGACCGCAACTGAAAAGTTGTTATCACTTGTCGTAAGACACTTTGATGGGTTGGTTCTGCACGTAGAAGCAAAAGGC [3d2270] | 0.00433 |
| GAGACCGCAACTGAAAAGTTGTTATCACTTGTCGTAAGACACTTTGGAGGGTTGGTTCTGCACGTAGAAGCAAAAGGC [3d2280] | 0.0051 |
| GAGACCGCAACTGAAAAGTTGTTATCACTTGTCGTAAGACACTTTGGATGGGTTCGTTCTGCACGTAGAAGCAAAAGGC [s80] | 0.0169 |
| GAGACCGCAACTGAAAAGTTGTTATCACTTGTCGTAAGACACTTTGGATGGGTTGGTTCTGCACGTAGAAGCAAAAGGC [2d299] | 0.02 |
| GAGACCGCAACTGAAAAGTTGTTATCACTTGTCGTAAGACACTTTGGATGGGTTGTTCTGCACGTAGAAGCAAAAGGC [3d2283] | 0.021 |
| GAGACCGCAACTGAAAAGTTGTTATCACTTGTCGTAAGACACTTTGGATGGGTTTGTTCTGCACGTAGAAGCAAAAGGC [s81] | 0.0148 |
| GAGACCGCAACTGAAAAGTTGTTATCACTTGTCGTAAGACACTTTGGATGGTTGGTTCTGCACGTAGAAGCAAAAGGC [3d2282] | 0.0129 |
| GAGACCGCAACTGAAAAGTTGTTATCACTTGTCGTAAGACACTTTGGTGGGTTGGTTCTGCACGTAGAAGCAAAAGGC [3d2276] | 0.00831 |
| GAGACCGCAACTGAAAAGTTGTTATCACTTGTCGTAAGACATTTGGATGGGTTGGTTCTGCACGTAGAAGCAAAAGGC [3d2230] | 0.00375 |
| GAGACCGCAACTGAAAAGTTGTTATCACTTGTCGTAAGACCTTTGGATGGGTTGGTTCTGCACGTAGAAGCAAAAGGC [3d2206] | 0.0611 |
| GAGACCGCAACTGAAAAGTTGTTATCACTTGTCGTAAGCACTTTGGATGGGTTGGTTCTGCACGTAGAAGCAAAAGGC [3d2151] | 0.116 |
| GAGACCGCAACTGAAAAGTTGTTATCACTTGTCGTAGACACTTTGGATGGGTTGGTTCTGCACGTAGAAGCAAAAGGC [3d2058] | 0.0726 |
| GAGACCGCAACTGAAAAGTTGTTATCACTTGTCTAAGACACTTTGGATGGGTTGGTTCTGCACGTAGAAGCAAAAGGC [3d1901] | 0.0966 |
| GAGACCGCAACTGAAAAGTTGTTATCACTTGTGTAAGACACTTTGGATGGGTTGGTTCTGCACGTAGAAGCAAAAGGC [3d1809] | 0.0204 |
| GAGACCGCAACTGAAAAGTTGTTATCACTTTCGTAAGACACTTTGGATGGGTTGGTTCTGCACGTAGAAGCAAAAGGC [3d1584] | 0.0193 |
| GAGACCGCAACTGAAAAGTTGTTATCATTGTCGTAAGACACTTTGGATGGGTTGGTTCTGCACGTAGAAGCAAAAGGC [3d1292] | 0.00677 |
| GAGACCGCAACTGAAAAGTTGTTATCCTTGTCGTAAGACACTTTGGATGGGTTGGTTCTGCACGTAGAAGCAAAAGGC [3d1120] | 0.00301 |
| GAGACCGCAACTGAAAAGTTGTTTCACTTGTCGTAAGACACTTTGGATGGGTTGGTTCTGCACGTAGAAGCAAAAGGC [3d507] | 0.00164 |

system: F1*sub RNA substrate (template-directed ligation); assay: fraction ligated after 30 min (ligated reads / total reads); higher = more ligase activity; sequences stand for … in GAGACCGCAACTGAAAAGTTGT…AGTTCTGCACGTAGAAGCAAAAGGC; settings: 42 °C
Procedure, shortened: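 Oligo-pool templates of ligase ribozyme variants were PCR-amplified, T7-transcribed and gel-purified. Ligated and unligated bands were gel-separated, reverse transcribed with barcoded primers, and MiSeq-sequenced; core bases were filtered at quality ≥20. Fraction ligated per variant was ligated reads over total reads.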

| Sequence | fraction ligated |
| --- | --- |
| TTCCTTGTCTAAGACACTTTGGATGGGTTGA [3d302] | 0.78 |
| TTCCTTGTGTAAGACACTTTGGATGGGTTGA [3d301] | 0.782 |
| TTCCTTTCGTAAGACACTTTGGATGGGTTGA [3d299] | 0.753 |
| TTCTTGTCGTAAGACACTTTGGATGGGTTGA [3d277] | 0.765 |

system: F1*subA RNA substrate (template-directed ligation); assay: fraction ligated after 30 min (ligated reads / total reads); higher = more ligase activity; sequences stand for … in GAGACCGCAACTGAAAAGTTGT…TTTCTGCACGTAGAAGCAAAAGGC; settings: 42 °C, parent ribozyme: minF1
Procedure: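 Chip-synthesised pool of minF1 ligase ribozyme variants (single and double substitutions, single to quadruple deletions, bulge and P2 designed variants) was transcribed with T7 and reacted as a pool with excess substrate F1*subA for 30 min at 42 C in 50 mM EPPS pH 8.5, 25 mM MgCl2. Ligated and unligated RNAs were separated by PAGE, barcoded by RT and deep sequenced; fraction ligated = ligated reads / total reads, relative activity = FL / FL of wild-type minF1 (0.76); sequencing FL correlated with PAGE (R2 = 0.98). Sequences are the DNA template of the ribozyme.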

| Sequence | fraction ligated |
| --- | --- |
| ATCAGAAATGGATGGGTT [4d310] | 0.0014 |
| ATCAGAAATGGATGGTTG [4d309] | 0.000441 |
| TATCAGAAAGGATGGGTT [4d1070] | 0.00116 |
| TATCAGAAAGGATGGTTG [4d1069] | 0.000981 |
| TATCAGAAATGATGGGTT [4d1093] | 0 |
| TATCAGAAATGATGGGTTG [3d366] | 0.000941 |
| TATCAGAAATGATGGTTG [4d1092] | 0.00043 |
| TATCAGAAATGGAGGGTTG [3d376] | 0.00056 |
| TATCAGAAATGGATGGGTT [3d379] | 0.00181 |
| TATCAGAAATGGATGGGTT [s45 (=3d379)] | 0.00181 |
| TATCAGAAATGGATGGTTA [3d377] | 0.00122 |
| TATCAGAAATGGATGGTTG [3d378] | 0.00121 |
| TATCAGAAATGGTGGGTTG [3d372] | 0.000922 |
| TATCAGAATGGATGGGTT [4d1042] | 0.00126 |
| TATCAGAATGGATGGTTG [4d1041] | 0.00128 |
